Target: T1, ATP phosphoribosyltransferase (Escherichia coli, UniProt P60757, E271K/H232T/R250H/S288P/T252L)
T1 construct: made in house; supernatant of sonicated cells
Format: biochemical, E. coli
Settings: comparison of hisG_WT, hisG_SDM4, hisG_SDM7
Description: Each strain was cultured under conditions of 30° C. and 180 rpm. When the OD600 reached 0.6, ATP-PRT expression was induced with 1 mM IPTG (final concentration) and additional culture was performed for about 4 hours. The cells obtained after culturing were sonicated and centrifuged. The obtained supernatants were used for evaluation of ATP phosphoribosyltransferase activity. […] The protein in each supernatant was quantified to match the concentration, and the enzyme activity was measured after mixing the reactants according to the reaction composition shown in Table 8 below.
The activity was measured at 30° C. at a UV wavelength of 290 nm at 2 minute intervals for 30 minutes.

B1: hisG_SDM7: ATP-PRT variant containing H232T, R250H, T252L, E271K and S288P mutations (protein)
chain: MTDNTRLRIAMQKSGRLSDDSRELLARCGIKINLHTQRLIAMAENMPIDILRVRDDDIPGLVMDGVVDLGIIGENVLEEELLNRRAQGEDPRYFTLRRLDFGGCRLSLATPVDEAWDGPLSLNGKRIATSYPHLLKRYLDQKGISFKSCLLNGSVEVAPRAGLADAICDLVSTGATLEANGLREVEVIYRSKACLIQRDGEMEESKQQLIDKLLTRIQGVIQARESKYIMMTAPTERLDEVIALLPGAEHPLILPLAGDQQRVAMHMVSSKTLFWETMEKLKALGASPILVLPIEKMME
modifications: hisG_SDM7
notes: ATP-PRT variant containing H232T, R250H, T252L, E271K and S288P mutations
  Resistance to activity inhibition by histidine: best resistance

Reference: patent publication US20240327884A1, “ATP-PRT VARIANT WITH REDUCED FEEDBACK INHIBITION BY HISTIDINE, AND HISTIDINE-PRODUCING STRAIN EXPRESSING SAME” (priority 2020, published 2024)
